Reference: PMC4078746

Target: Slit D2 (the Robo-binding domain of Slit) (Drosophila)
Assay: SPR

Row | Substance | Kd
1 | Robo1 Ig1-5 fragment (Ig domain-containing portion of the Robo ectodomain) (domain or fragment) | 235 nM
2 | Robo2 Ig1-5 fragment (Ig domain-containing portion of the Robo2 ectodomain) (domain or fragment) | 1100 nM
